Source: article PMC3973318
Like-named read-outs stand apart in the source and are kept apart here.

Key:
Assay in all cases: EMSA
ΔN-DRH3 [1] = molecular target: T1, ΔN-DRH3 (Caenorhabditis elegans, UniProt Q93413 300-1119)
T1 sequence: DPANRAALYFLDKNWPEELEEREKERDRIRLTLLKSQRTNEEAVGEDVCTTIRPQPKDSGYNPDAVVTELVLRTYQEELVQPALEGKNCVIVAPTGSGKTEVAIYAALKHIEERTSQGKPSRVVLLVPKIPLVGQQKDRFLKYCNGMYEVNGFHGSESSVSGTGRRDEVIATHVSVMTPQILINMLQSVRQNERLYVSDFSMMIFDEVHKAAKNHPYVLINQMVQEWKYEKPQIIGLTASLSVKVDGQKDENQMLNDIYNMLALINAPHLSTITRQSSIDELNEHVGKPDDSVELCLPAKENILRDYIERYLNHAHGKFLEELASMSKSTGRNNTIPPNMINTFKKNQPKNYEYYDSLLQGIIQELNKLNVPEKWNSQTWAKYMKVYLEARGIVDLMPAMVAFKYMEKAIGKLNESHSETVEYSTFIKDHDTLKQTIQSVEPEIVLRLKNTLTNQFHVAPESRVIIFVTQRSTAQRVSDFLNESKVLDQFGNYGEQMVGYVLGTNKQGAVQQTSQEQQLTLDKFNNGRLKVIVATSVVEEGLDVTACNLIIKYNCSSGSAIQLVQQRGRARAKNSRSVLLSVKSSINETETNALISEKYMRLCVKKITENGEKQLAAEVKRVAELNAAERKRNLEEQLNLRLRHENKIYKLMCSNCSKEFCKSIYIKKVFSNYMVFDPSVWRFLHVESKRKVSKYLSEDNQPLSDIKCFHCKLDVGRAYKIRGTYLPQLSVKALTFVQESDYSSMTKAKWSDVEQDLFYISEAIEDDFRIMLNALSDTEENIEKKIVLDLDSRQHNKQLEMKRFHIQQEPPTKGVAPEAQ

DRH-3 [2] = molecular target: T2, DRH-3 (Caenorhabditis elegans, UniProt Q93413 1-1119)
T2 sequence: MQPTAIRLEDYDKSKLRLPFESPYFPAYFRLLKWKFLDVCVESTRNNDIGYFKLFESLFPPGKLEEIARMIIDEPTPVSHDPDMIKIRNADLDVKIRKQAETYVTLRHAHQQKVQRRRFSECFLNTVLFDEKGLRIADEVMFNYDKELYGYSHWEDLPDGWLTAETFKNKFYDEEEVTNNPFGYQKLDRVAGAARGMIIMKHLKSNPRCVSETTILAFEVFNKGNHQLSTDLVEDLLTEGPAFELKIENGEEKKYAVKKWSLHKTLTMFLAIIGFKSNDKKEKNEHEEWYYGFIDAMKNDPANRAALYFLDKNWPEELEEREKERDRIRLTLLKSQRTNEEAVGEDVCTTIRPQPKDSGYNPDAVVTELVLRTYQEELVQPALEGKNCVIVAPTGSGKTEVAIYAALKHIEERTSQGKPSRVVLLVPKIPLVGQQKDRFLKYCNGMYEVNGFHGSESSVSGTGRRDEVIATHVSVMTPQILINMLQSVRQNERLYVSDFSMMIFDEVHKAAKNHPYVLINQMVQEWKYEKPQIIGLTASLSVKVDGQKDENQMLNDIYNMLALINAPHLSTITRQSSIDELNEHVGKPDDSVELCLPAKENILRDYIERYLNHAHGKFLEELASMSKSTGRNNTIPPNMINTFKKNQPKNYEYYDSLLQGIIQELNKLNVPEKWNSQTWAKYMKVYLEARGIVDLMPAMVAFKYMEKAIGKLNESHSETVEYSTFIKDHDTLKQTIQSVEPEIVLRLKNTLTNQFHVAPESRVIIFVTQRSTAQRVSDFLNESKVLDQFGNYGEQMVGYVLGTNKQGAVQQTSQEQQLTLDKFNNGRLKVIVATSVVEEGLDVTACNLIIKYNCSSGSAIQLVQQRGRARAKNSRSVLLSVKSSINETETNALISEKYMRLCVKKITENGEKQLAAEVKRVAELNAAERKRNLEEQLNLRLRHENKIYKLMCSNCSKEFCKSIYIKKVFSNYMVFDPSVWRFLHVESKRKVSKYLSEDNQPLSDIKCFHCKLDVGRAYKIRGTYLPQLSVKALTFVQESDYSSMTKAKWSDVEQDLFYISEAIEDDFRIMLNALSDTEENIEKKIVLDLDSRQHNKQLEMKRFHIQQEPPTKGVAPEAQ

DRH-3 [3] = molecular target: T2, DRH-3; remark: listed apart in the source
ΔN-DRH3 [4] = molecular target: T1, ΔN-DRH3; remark: listed apart in the source
MDA-5 = molecular target: T3, MDA-5 (human, UniProt Q9BYX4 1-1025)
T3 sequence: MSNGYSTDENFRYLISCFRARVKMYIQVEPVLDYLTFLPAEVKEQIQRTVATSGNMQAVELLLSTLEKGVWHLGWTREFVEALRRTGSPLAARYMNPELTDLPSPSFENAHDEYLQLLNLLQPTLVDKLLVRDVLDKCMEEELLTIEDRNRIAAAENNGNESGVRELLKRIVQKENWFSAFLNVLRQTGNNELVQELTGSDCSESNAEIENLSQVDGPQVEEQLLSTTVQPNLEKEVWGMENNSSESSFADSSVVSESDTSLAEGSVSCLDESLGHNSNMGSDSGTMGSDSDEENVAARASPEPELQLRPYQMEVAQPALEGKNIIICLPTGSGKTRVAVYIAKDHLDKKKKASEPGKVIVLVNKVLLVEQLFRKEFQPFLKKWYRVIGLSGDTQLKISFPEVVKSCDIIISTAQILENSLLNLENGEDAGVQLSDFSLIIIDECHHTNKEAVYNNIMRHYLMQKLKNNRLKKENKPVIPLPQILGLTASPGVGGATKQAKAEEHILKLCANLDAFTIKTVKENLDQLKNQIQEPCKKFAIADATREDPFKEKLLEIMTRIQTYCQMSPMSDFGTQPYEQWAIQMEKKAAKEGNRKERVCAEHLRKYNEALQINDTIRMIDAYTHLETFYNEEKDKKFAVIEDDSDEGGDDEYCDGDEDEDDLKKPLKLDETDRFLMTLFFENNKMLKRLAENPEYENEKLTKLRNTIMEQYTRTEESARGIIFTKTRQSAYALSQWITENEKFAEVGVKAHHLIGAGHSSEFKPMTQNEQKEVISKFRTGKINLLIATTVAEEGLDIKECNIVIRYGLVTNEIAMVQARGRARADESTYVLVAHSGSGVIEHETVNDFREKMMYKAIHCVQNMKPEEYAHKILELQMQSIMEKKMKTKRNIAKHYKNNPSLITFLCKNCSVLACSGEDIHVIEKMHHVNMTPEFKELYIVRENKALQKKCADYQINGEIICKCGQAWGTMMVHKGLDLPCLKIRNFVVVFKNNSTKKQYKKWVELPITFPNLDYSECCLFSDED

RIG-I = molecular target: T4, RIG-I (UniProt O95786 1-925)
T4 sequence: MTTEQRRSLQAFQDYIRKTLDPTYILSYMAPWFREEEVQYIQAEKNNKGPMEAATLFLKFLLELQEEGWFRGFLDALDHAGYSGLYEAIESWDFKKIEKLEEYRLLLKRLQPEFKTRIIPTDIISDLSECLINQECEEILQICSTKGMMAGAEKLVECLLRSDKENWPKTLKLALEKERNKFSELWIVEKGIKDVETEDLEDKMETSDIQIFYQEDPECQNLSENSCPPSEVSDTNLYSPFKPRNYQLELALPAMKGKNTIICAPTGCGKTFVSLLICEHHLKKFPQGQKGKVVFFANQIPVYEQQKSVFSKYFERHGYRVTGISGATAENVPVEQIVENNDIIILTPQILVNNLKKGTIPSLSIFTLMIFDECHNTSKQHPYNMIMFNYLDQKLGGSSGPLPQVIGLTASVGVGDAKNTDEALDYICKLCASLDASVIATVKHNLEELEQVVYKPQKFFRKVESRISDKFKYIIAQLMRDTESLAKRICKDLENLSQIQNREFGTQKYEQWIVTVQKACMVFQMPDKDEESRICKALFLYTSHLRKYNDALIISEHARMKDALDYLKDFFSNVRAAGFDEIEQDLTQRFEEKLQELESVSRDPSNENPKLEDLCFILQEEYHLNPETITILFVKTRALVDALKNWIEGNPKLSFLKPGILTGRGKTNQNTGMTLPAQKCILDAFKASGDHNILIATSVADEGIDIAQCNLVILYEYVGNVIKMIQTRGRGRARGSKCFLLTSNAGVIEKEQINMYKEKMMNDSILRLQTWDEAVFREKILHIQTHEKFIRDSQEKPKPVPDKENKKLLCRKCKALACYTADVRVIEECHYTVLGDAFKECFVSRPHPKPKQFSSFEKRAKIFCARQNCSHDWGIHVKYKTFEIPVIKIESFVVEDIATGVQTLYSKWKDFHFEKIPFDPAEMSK

DRH-3 [5] = molecular target: T2, DRH-3; remark: listed apart in the source
ΔN-DRH3 [6] = molecular target: T1, ΔN-DRH3; remark: listed apart in the source
ΔN-DRH3 [7] = molecular target: T1, ΔN-DRH3; remark: listed apart in the source

B1: ds12 (dsRNA)
RNA 1: GCCCAGACCACC
RNA 2: GGUGGUCUGGGC
Binder B1 has a Kd (ΔN-DRH3 [1]) of 522 ± 67 nM and a Kd (DRH-3 [2]) of 839 ± 53 nM.

B2: ds18 (dsRNA)
RNA 1: GGGUAUAGACUGACUAGG
RNA 2: CCUAGUCAGUCUAUACCC
Binder B2 has a Kd (DRH-3 [2]) of 679 ± 135 nM.

B3: ds25 (dsRNA)
RNA 1: GGGUAUAGACUGACUAGGAUCUCCC
RNA 2: GGGAGAUCCUAGUCAGUCUAUACCC
For B3, the Kd (DRH-3 [3]) was 218 ± 7 nM, the Kd (ΔN-DRH3 [4]) was 376 ± 5 nM and the Kd (MDA-5) was 123 ± 4 nM. For the same binder, the Kd (RIG-I) was 38 ± 6 nM.

B4: ds22 (dsRNA)
RNA 1: GGGUACAGACUGACUAGGAUCG
RNA 2: CGAUCCUAGUCAGUCUGUACCC
B4 was tested, and the Kd (DRH-3 [5]) was 230 ± 7 nM.

B5: ds34 (dsRNA)
RNA 1: GGAGUGCAUCUCCUUCCCUCCUUUCCUUCUGGUC
RNA 2: GACCAGAAGGAAAGGAGGGAAGGAGAUGCACUCC
B5 gave a Kd (DRH-3 [3]) of 384 ± 19 nM.

B6: dsPPP25 (dsRNA)
RNA 1: GGGUAUAGACUGACUAGGAUCUCCC
RNA 2: GGGAGAUCCUAGUCAGUCUAUACCC
modifications: 5' triphosphate on top strand
Binder B6 has a Kd (ΔN-DRH3 [6]) of 120 ± 6 nM.

B7: dsPPP12 (dsRNA)
RNA 1: GCCCAGACCACC
RNA 2: GGUGGUCUGGGC
modifications: 5' triphosphate on top strand
In the case of B7, the Kd (ΔN-DRH3 [7]) is reported as 174 ± 12 nM.
